Measurements taken from doi:10.1101/2025.11.18.25340499 (medRxiv, 2025).

Key:
MuSK Bait [1] = target: T1, MuSK Bait (Homo sapiens (species of MuSK not …, UniProt O15146)); test: AlphaScreen or HTRF
MuSK Bait [2] = target: T1, MuSK Bait; test: SPR

Binder | binding result (MuSK Bait [1]) | binding result (MuSK Bait [2])
MuSK1A (antibody, V domains shown) VH: QVQLVQSGAEVKKPGASVKVSCKTSGYTFNNYDINWVRQAAGQGLEWMGWMNPYSGNTGYAQKFQGRVTMTRNISITTVYMELSSLRSEDTAVYYCAREVRGDTGYGGGSDYWGQGTLVTVSS VL: SYELTQPPSVSLSPGQTATITCSGDKLDDNYVCWYQQKPGQSPVLVIYQDTMRPSGIPERFSGSNSGNIATLTISGTQAVDEADYYCQAWDGSTVVFGGGTRLTVL | binds | 
MuSK1B (antibody, V domains shown) VH: EVQLVEWGAGLLKPSETLSLTCAVYGGSFSGDYWWTWIRQPPGKGLEWIGEIDHTGNTNYNPSLKSRLTLSVDMSKNHFSLKLTSVTAADTALYFCARQEGLGYYDSWGQGTLVTVSS VL: SYELTQSPSVSVSPGQTANITCSGDKLGDRYASWYQQKPAQSPVLVIYQDDRRPSGIPERFSGSNSGNTATLTISGTQGMDEADYYCQAWDGTTVFGGGTKLTVL | binds | 

Continued, values first:

binding result (MuSK Bait [1]) | binding result (MuSK Bait [2]) | Binder
binds |  | 11-3F6 (antibody, V domains shown) VH: EVQLVESGGGLVKPGGSLRLSCAASGFTFSSYTMDWVRQAPGKGLEWVSSIGSNGDYIYYADSVRGRFTISRDNAKNSLYLQMNSLRPDDTADYYCARGQLAVAGTHFDYWGRGSLVTVSS VL: DIQMTQSPSSLSASVGDRVTISCRASQKVNKYVNWYQQTPGKAPRLLIYAASTLQSGVPSRFSGSGSGANFTLTISGLQPEDFAIYFCQQSYSPLCTFGQGTKLEIK
 | binds | 13-3B5 (antibody, V domains shown) VH: QVQLVQSGAVVAKPGASVQVSCKTSGYTFTGQYLHWVRQAPGQGLEWIGWINPSSGVTKFAEKFEGRATMTRDTSITTAYIDLRSLRSDDTATYYCATLSLGVYYVGMVAWGQGTLVTVSS VL: SYELTQPPSVSVSPGQTATITCSGDGLAQQHVYWFQQRPGQAPLLIIYKDIERPSGIPERFSGSSSGTTAMLTISGVQAEDEADYYCQSGDRTATSVLFGGGTKMTVL
